Columns and labels:
[1] = target: BRD4 (bromodomain-containing protein 4) (UniProt Q9ESU6); assay: co-immunoprecipitation (IP: BMAL1) with immunoblot, chemiluminescence band intensity; conditions: nuclear extracts, synchronized fibroblasts 24 hr after Dex, scale: relative band intensity
[2] = target: CDK9 (cyclin-dependent kinase 9) (UniProt Q99J95); assay: as above; conditions: nuclear extracts, synchronized fibroblasts 24 hr after Dex, scale: relative band intensity
[3] = highest amount of IP (two-fold dilution series, lane 3 of 3)
[4] = lowest amount of IP (two-fold dilution series, lane 1 of 3)
[5] = middle amount of IP (two-fold dilution series, lane 2 of 3)

BMAL1 (brain and muscle ARNT-like protein 1) K538R
response [1, 3]: 0.1 | response [1, 4]: 0.02 | response [1, 5]: 0.06 | response [2, 3]: 0.07 | response [2, 4]: 0.01 | response [2, 5]: 0.03

Reference: PMC6650244
